{"source": "paper PMC4434323", "key": {"[1]": {"molecular_target": "T1, odr-7 (T18D3.2) (Caenorhabditis elegans) (UniProt P41933)", "T1 sequence": "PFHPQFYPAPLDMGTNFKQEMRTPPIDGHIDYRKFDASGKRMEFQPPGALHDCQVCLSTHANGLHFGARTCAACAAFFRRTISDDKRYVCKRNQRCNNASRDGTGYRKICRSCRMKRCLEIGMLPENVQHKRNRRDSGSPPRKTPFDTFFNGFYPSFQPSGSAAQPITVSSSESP"}, "[2]": {"molecular_target": "T2, mbr-1 (T01C1.2) (Caenorhabditis elegans) (UniProt G5EGQ5)", "T2 sequence": "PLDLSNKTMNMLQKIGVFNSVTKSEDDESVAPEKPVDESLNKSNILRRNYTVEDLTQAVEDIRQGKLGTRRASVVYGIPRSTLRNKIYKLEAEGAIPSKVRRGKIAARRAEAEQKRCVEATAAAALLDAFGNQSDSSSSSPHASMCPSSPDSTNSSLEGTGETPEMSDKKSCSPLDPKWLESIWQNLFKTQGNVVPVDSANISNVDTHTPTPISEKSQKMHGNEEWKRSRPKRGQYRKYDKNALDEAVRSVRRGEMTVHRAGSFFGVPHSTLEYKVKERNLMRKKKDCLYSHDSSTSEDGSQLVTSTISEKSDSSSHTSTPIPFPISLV"}, "[3]": {"molecular_target": "T3, nhr-142 (F44E7.8) (Caenorhabditis elegans) (UniProt J7SF93)", "T3 sequence": "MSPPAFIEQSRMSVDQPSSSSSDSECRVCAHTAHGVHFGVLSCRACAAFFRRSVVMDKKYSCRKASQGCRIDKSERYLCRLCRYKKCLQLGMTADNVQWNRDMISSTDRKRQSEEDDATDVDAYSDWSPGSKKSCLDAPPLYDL"}, "[4]": {"molecular_target": "T4, nhr-232 (Y22F5A.1) (Caenorhabditis elegans) (UniProt A0A486WVR6)", "T4 sequence": "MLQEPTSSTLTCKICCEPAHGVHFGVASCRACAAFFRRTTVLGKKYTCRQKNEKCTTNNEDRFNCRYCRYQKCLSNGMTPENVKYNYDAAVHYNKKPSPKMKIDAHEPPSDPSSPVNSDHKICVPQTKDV"}, "[5]": {"molecular_target": "T5, nhr-42 (C33G8.6) (Caenorhabditis elegans) (UniProt O76828)", "T5 sequence": "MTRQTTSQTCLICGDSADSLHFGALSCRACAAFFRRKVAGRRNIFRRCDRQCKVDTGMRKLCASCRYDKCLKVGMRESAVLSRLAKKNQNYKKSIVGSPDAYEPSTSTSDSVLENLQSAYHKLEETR"}, "[6]": {"tested_on": "T6, nhr-216 (T09D3.4) (Caenorhabditis elegans)", "T6 sequence": "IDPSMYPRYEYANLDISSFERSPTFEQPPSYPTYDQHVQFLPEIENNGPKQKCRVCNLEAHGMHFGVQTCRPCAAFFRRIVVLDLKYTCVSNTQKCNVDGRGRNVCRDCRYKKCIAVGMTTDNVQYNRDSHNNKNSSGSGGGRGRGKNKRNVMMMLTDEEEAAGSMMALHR"}, "[7]": {"molecular_target": "T7, nhr-66 (T09A12.4) (Caenorhabditis elegans) (UniProt H2KYJ8)", "T7 sequence": "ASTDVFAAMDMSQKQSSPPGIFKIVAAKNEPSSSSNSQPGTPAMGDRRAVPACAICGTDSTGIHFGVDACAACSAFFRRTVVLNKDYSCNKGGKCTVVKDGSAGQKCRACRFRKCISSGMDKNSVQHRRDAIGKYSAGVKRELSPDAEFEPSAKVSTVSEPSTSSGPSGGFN"}, "[8]": {"molecular_target": "T8, nhr-70 (Y51A2D.17) (Caenorhabditis elegans) (UniProt G5EEL3)", "T8 sequence": "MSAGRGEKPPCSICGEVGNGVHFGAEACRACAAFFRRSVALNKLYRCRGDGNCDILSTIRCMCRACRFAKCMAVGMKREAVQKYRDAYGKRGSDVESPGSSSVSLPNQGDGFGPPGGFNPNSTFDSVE"}}}
{"sequence": "AAATTGTA (double strand) [8-mer AAATTGTA]", "values": [{"measurement": "binding signal (PBM E-score (-0.5 to 0.5))", "setting": "[1]", "value": 0.456}]}
{"sequence": "AAGGCCCC (double strand) [8-mer AAGGCCCC]", "values": [{"measurement": "binding signal (PBM E-score (-0.5 to 0.5))", "setting": "[2]", "value": 0.489}]}
{"sequence": "AAGGGGCC (double strand) [8-mer AAGGGGCC]", "values": [{"measurement": "binding signal (PBM E-score (-0.5 to 0.5))", "setting": "[2]", "value": 0.487}]}
{"sequence": "AAGTCACA (double strand) [8-mer AAGTCACA]", "values": [{"measurement": "binding signal (PBM E-score (-0.5 to 0.5))", "setting": "[3]", "value": 0.496}, {"measurement": "binding signal (PBM E-score (-0.5 to 0.5))", "setting": "[4]", "value": 0.498}, {"measurement": "binding signal (PBM E-score (-0.5 to 0.5))", "setting": "[5]", "value": 0.494}]}
{"sequence": "AAGTCAGA (double strand) [8-mer AAGTCAGA]", "values": [{"measurement": "binding signal (PBM E-score (-0.5 to 0.5))", "setting": "[6]", "value": 0.493}]}
{"sequence": "AATCAGAA (double strand) [8-mer AATCAGAA]", "values": [{"measurement": "binding signal (PBM E-score (-0.5 to 0.5))", "setting": "[6]", "value": 0.497}]}
{"sequence": "AATGTAGT (double strand) [8-mer AATGTAGT]", "values": [{"measurement": "binding signal (PBM E-score (-0.5 to 0.5))", "setting": "[7]", "value": 0.48}]}
{"sequence": "AATTGTAC (double strand) [8-mer AATTGTAC]", "values": [{"measurement": "binding signal (PBM E-score (-0.5 to 0.5))", "setting": "[1]", "value": 0.46}]}
{"sequence": "AATTGTAG (double strand) [8-mer AATTGTAG]", "values": [{"measurement": "binding signal (PBM E-score (-0.5 to 0.5))", "setting": "[1]", "value": 0.489}]}
{"sequence": "ACACAAAA (double strand) [8-mer ACACAAAA]", "values": [{"measurement": "binding signal (PBM E-score (-0.5 to 0.5))", "setting": "[4]", "value": 0.465}]}
{"sequence": "ACTACAAC (double strand) [8-mer ACTACAAC]", "values": [{"measurement": "binding signal (PBM E-score (-0.5 to 0.5))", "setting": "[7]", "value": 0.482}]}
{"sequence": "ACTACAAT (double strand) [8-mer ACTACAAT]", "values": [{"measurement": "binding signal (PBM E-score (-0.5 to 0.5))", "setting": "[7]", "value": 0.488}, {"measurement": "binding signal (PBM E-score (-0.5 to 0.5))", "setting": "[1]", "value": 0.49}, {"measurement": "binding signal (PBM E-score (-0.5 to 0.5))", "setting": "[8]", "value": 0.49}]}
{"sequence": "ACTACACA (double strand) [8-mer ACTACACA]", "values": [{"measurement": "binding signal (PBM E-score (-0.5 to 0.5))", "setting": "[7]", "value": 0.484}]}
{"sequence": "ACTACACG (double strand) [8-mer ACTACACG]", "values": [{"measurement": "binding signal (PBM E-score (-0.5 to 0.5))", "setting": "[7]", "value": 0.481}]}
{"sequence": "ACTACACT (double strand) [8-mer ACTACACT]", "values": [{"measurement": "binding signal (PBM E-score (-0.5 to 0.5))", "setting": "[7]", "value": 0.487}]}
{"sequence": "AGACTACA (double strand) [8-mer AGACTACA]", "values": [{"measurement": "binding signal (PBM E-score (-0.5 to 0.5))", "setting": "[7]", "value": 0.487}, {"measurement": "binding signal (PBM E-score (-0.5 to 0.5))", "setting": "[8]", "value": 0.486}]}
{"sequence": "AGCCCCCC (double strand) [8-mer AGCCCCCC]", "values": [{"measurement": "binding signal (PBM E-score (-0.5 to 0.5))", "setting": "[2]", "value": 0.491}]}
{"sequence": "AGGCCCCC (double strand) [8-mer AGGCCCCC]", "values": [{"measurement": "binding signal (PBM E-score (-0.5 to 0.5))", "setting": "[2]", "value": 0.495}]}
{"sequence": "AGGCCCCT (double strand) [8-mer AGGCCCCT]", "values": [{"measurement": "binding signal (PBM E-score (-0.5 to 0.5))", "setting": "[2]", "value": 0.491}]}
{"sequence": "AGGCTACA (double strand) [8-mer AGGCTACA]", "values": [{"measurement": "binding signal (PBM E-score (-0.5 to 0.5))", "setting": "[8]", "value": 0.488}]}
{"sequence": "AGGGGCCA (double strand) [8-mer AGGGGCCA]", "values": [{"measurement": "binding signal (PBM E-score (-0.5 to 0.5))", "setting": "[2]", "value": 0.492}]}
{"sequence": "AGGGGGGC (double strand) [8-mer AGGGGGGC]", "values": [{"measurement": "binding signal (PBM E-score (-0.5 to 0.5))", "setting": "[2]", "value": 0.491}]}
{"sequence": "AGGTCACA (double strand) [8-mer AGGTCACA]", "values": [{"measurement": "binding signal (PBM E-score (-0.5 to 0.5))", "setting": "[3]", "value": 0.486}, {"measurement": "binding signal (PBM E-score (-0.5 to 0.5))", "setting": "[4]", "value": 0.455}, {"measurement": "binding signal (PBM E-score (-0.5 to 0.5))", "setting": "[5]", "value": 0.486}]}
{"sequence": "AGTCACAA (double strand) [8-mer AGTCACAA]", "values": [{"measurement": "binding signal (PBM E-score (-0.5 to 0.5))", "setting": "[3]", "value": 0.498}, {"measurement": "binding signal (PBM E-score (-0.5 to 0.5))", "setting": "[4]", "value": 0.497}, {"measurement": "binding signal (PBM E-score (-0.5 to 0.5))", "setting": "[5]", "value": 0.489}]}
{"sequence": "AGTCACAC (double strand) [8-mer AGTCACAC]", "values": [{"measurement": "binding signal (PBM E-score (-0.5 to 0.5))", "setting": "[3]", "value": 0.49}, {"measurement": "binding signal (PBM E-score (-0.5 to 0.5))", "setting": "[4]", "value": 0.48}, {"measurement": "binding signal (PBM E-score (-0.5 to 0.5))", "setting": "[5]", "value": 0.489}]}
{"sequence": "AGTCACAG (double strand) [8-mer AGTCACAG]", "values": [{"measurement": "binding signal (PBM E-score (-0.5 to 0.5))", "setting": "[3]", "value": 0.492}, {"measurement": "binding signal (PBM E-score (-0.5 to 0.5))", "setting": "[4]", "value": 0.465}]}
{"sequence": "AGTCAGAA (double strand) [8-mer AGTCAGAA]", "values": [{"measurement": "binding signal (PBM E-score (-0.5 to 0.5))", "setting": "[6]", "value": 0.498}]}
{"sequence": "AGTCATAA (double strand) [8-mer AGTCATAA]", "values": [{"measurement": "binding signal (PBM E-score (-0.5 to 0.5))", "setting": "[3]", "value": 0.491}, {"measurement": "binding signal (PBM E-score (-0.5 to 0.5))", "setting": "[4]", "value": 0.48}]}
{"sequence": "ATACAATA (double strand) [8-mer ATACAATA]", "values": [{"measurement": "binding signal (PBM E-score (-0.5 to 0.5))", "setting": "[1]", "value": 0.461}]}
{"sequence": "ATCAGAAC (double strand) [8-mer ATCAGAAC]", "values": [{"measurement": "binding signal (PBM E-score (-0.5 to 0.5))", "setting": "[6]", "value": 0.494}]}
{"sequence": "ATCAGAAG (double strand) [8-mer ATCAGAAG]", "values": [{"measurement": "binding signal (PBM E-score (-0.5 to 0.5))", "setting": "[6]", "value": 0.494}]}
{"sequence": "ATGGCCCC (double strand) [8-mer ATGGCCCC]", "values": [{"measurement": "binding signal (PBM E-score (-0.5 to 0.5))", "setting": "[2]", "value": 0.487}]}
{"sequence": "ATTCTGAC (double strand) [8-mer ATTCTGAC]", "values": [{"measurement": "binding signal (PBM E-score (-0.5 to 0.5))", "setting": "[6]", "value": 0.495}]}
